# In paper PMC3836714, “MYB97, MYB101 and MYB120 Function as Male Factors That Control Pollen Tube-Synergid Interaction in Arabidopsis thaliana Fertilization”:
# T1: MYB101 MYB domain (Arabidopsis thaliana, UniProt O80883 1-133)
# T1 sequence: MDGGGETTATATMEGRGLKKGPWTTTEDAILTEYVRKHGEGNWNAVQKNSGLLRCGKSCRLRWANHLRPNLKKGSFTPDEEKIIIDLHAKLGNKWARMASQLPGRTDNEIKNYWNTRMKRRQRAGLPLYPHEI
# B1: DG1WT (dsDNA)
# DNA 1: TTATGCATATAACAAAAATAATTTCAATGC
# DNA 2: GCATTGAAATTATTTTTGTTATATGCATAA
# B2: DG2WT (dsDNA)
# DNA 1: GACACAAATCAACAGTAACAAAACAAAATT
# DNA 2: AATTTTGTTTTGTTACTGTTGATTTGTGTC
# B3: mDG2WT (dsDNA)
# DNA 1: GACACAAATCAACAGCTCGAGGACAAAATT
# DNA 2: AATTTTGTCCTCGAGCTGTTGATTTGTGTC
# B4: DG3WT (dsDNA)
# DNA 1: ACGTCGGAAGGATTAACAAAAAAAAAGCCGTGGCGTT
# DNA 2: AACGCCACGGCTTTTTTTTTGTTAATCCTTCCGACGT
# Columns and labels:
# MYB101 MYB domain [1] = target: T1, MYB101 MYB domain; assay: EMSA; 10 mM Tris-Cl, 50 mM KCl, 1 mM DTT, pH 7.5, room temperature 20 min; 20 fmol probe, 200 ng protein, 50 ng poly(dI-dC) in 20 ul; 6% native PAGE, 0.5x TBE; details: protein: recombinant; tags: 6xHis (pET-30a(+)); annealed complementary oligonucleotides
# MYB101 MYB domain [2] = target: T1, MYB101 MYB domain; assay: competition; 500x molar excess vs labeled DG2WT; 10 mM Tris-Cl, 50 mM KCl, 1 mM DTT, pH 7.5, room temperature 20 min; 20 fmol probe, 200 ng protein, 50 ng poly(dI-dC) in 20 ul; 6% native PAGE, 0.5x TBE; details: protein: recombinant; tags: 6xHis (pET-30a(+)); annealed complementary oligonucleotides
Binder,binding result (MYB101 MYB domain [1]),binding result (MYB101 MYB domain [2])
B1,binds,
B2,binds,
B3,,no binding
B4,binds,
